What was measured:
hPEPT1 = molecular target: T1, hPEPT1 (Homo sapiens, UniProt P46059); experiment: Receptor ELISA of phage on hPEPT1; format: binding; details: Table 4; ratio
T1 construct: 391-571; made in house
T1 sequence (P46059 391-571): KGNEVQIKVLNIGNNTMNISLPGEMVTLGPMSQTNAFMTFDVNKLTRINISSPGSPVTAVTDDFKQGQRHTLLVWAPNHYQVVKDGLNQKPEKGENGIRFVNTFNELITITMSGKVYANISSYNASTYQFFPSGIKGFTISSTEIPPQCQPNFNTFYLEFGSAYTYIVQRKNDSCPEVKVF
Method: The plates were blocked for one hour with 0.5% BSA-PBS. After clarification, the amplified phage were diluted 1:100 in 1% BSA plus 0.05% Tween 20 in PBS and added to the plates. Following incubation of the plates on a rotator for 1 to 2 hours, the plates were washed 5 times with 1% BSA plus 0.05% Tween 20 in PBS. […] After the plates were washed 5 times, as described above, TMB substrate was added to the wells. The plates were read at 650 nm absorbance.

BSA = BSA (Bos taurus, UniProt P02769); experiment: Phage ELISA on BSA (background control protein); format: binding; details: Table 4
Method: 96 well plates were coated overnight with GIT receptor, BSA and, optionally, IDE (insulin degrading enzyme, an irrelevant His-fusion protein) or hTF. The plates were blocked for one hour with 0.5% BSA-PBS. After clarification, the amplified phage were diluted 1:100 in 1% BSA plus 0.05% Tween 20 in PBS and added to the plates. Following incubation of the plates on a rotator for 1 to 2 hours, the plates were washed 5 times with 1% BSA plus 0.05% Tween 20 in PBS. Dilute anti-M13-HRP conjugate (anti-M13 antibody linked to horse radish peroxidase (HRP)) was added to all the wells and the plate was incubated for one hour on a rotator. After the plates were washed 5 times, as described above, TMB substrate was added to the wells. The plates were read at 650 nm absorbance.

[1] = Method: In particular, phages selected in vitro to each receptor or binding site located in the GIT were amplified in E. coli, PEG-precipitated, resuspended in TBS and the titer of each phage sample was determined by plaquing in E. coli as described above. […] Using the in situ loop model described above, 0.5 ml of preselected phage library solution was injected into the tied-off portion of the duodenum/jejunum. Blood was collected into heparinized tubes from the portal vein at 0, 15, 30, 45 and 60 minutes. A blood sample was taken from the systemic circulation at the end of the experiment. Similarly, the portion of the duodenum/jejunum used for phage injection was taken at the end of the experiment.
Thirty microliters of the collected portal blood (neat and 10^−2, 10^−4, 10^−6 dilutions) was added to 30 μl E. coli K91Kan cells (overnight culture) and incubated at 37° C. for 10 min. Subsequently, 3 ml of top agarose was added and the samples were plated for plaques. One hundred microliters of the collected portal blood was added to 100 μl of E. coli K91Kan. Five milliliters of LB medium was then added and the samples were incubated at 37° C. overnight in a rotating microbial incubator. The E. coli was removed by centrifugation and the amplified phage supernatant samples were either titered directly or were PEG-precipitated, resuspended in TBS and titered. Following titration of the amplified phage, samples containing phage from each set of animals were combined, adjusting the titer of each sample to the same titer, and were plated for plaques on LB agar plates (22 cm^2 square plates). Either 12,000 or 24,000 phage were plated for plaques.
Thirty microliters of the collected systemic blood (neat and 10^−2, 10^−4, 10^−6 dilutions) was added to E. coli K91Kan cells, incubated at 37° C. for 10 min. Three ml of top agarose was then added and the samples were plated for plaques. One hundred microliters of the collected systemic blood was added to 100 μl of E. coli K91Kan, incubated at 37° C. for 10 min. Five milliliters of LB medium was then added and the samples were incubated at 37° C. overnight in a rotating microbial incubator. The E. coli was removed by centrifugation and the amplified phage supernatant samples were either titered directly or were PEG-precipitated, resuspended in TBS and titered. Following titration of the amplified phage, samples containing phage from each set of animals were combined, adjusting the titer of each sample to the same titer, and were plated for plaques on LB agar plates (22 cm^2 square plates). Either 12,000 or 24,000 phage were plated for plaques. The intestinal tissue portion used in each closed loop was excised. […] Alternatively, the tissue (in PBS supplemented with protease inhibitors) was homogenized in an Ultra Thorex homogenizer, washed 3 times in PBS containing protease inhibitors and resuspended in PBS containing protease inhibitors (Int-G samples). In each case, serial dilutions (neat and 10^−2, 10^−4, 10^−6 dilutions) of the tissue homogenate was titered in E. coli.
The phage amplified from the portal blood, systemic blood and intestinal tissue was plated for plaques. […] The filters were air-dried, and the DNA was cross-linked to the filter (UV crosslinking: 2 min, high setting). The filters were incubated in pre-hybridization buffer (6×SSC, 5×Denhardt's solution, 0.1% SDS, 20 μg/ml yeast tRNA) at 40° C.-45° C. for at least 60 min.
Synthetic oligonucleotides, (22-mers), complimentary to regions coding for the receptor or binding sites used to create the preselected phage library, were synthesized (see Table 14 below).
The oligonucleotides (5 pmol) were 5′ end labelled with ^32P-ATP and T4 polynucleotide kinase and approximately 2.5 pmol of labelled oligonucleotide was used in hybridization studies. […] The filters were air-dried and exposed for autoradiography for 15 hours, 24 hours or 72 hours.
Hybridization data for pools from each receptor group of rats was compiled.

[2] = Drug potency, peptide loading and size of coacervated particles; format: physicochemical; details: formulation 1 particles (coacervation), blend

BSA, sequence (P02769 25-607): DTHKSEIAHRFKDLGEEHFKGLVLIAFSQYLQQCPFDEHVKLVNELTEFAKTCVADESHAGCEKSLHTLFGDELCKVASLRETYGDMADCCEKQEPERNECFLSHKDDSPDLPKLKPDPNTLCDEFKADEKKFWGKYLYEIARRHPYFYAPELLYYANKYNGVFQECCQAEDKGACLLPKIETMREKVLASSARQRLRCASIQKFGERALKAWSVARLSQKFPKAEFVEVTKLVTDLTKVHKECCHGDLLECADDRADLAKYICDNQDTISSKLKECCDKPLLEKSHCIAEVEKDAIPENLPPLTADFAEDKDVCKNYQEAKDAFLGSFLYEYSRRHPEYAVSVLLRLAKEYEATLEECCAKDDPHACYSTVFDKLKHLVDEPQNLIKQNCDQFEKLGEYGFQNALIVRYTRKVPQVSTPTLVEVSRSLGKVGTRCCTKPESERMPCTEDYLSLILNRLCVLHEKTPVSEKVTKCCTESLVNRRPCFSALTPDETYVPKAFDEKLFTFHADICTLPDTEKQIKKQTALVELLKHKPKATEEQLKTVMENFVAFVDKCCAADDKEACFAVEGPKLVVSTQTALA

Which results are given for “RGSTGTAGGERSGVLNLHTRDNASGSGFKPWYPSNRGHK [Peptide 5PAX5]”?
PEPT1/BSA (hPEPT1): 4; BSA (BSA): 0.036 OD; presence in the systemic circulation (in words) ([1]; text summary of HPT1 and hPEPT1 pools): found in the systemic circulation; transport from the GIT closed loop into the portal circulation (in words) ([1]; text summary of hSI, D2H, HPT1, hPEPT1 pools): not found in the portal blood; presence in the intestine samples or fractions (in words) ([1]; text summary of the four pools): not found in the intestine samples; Insulin (insulin potency) ([2]; coated with the named peptide): 52.7 mg/g; Peptide (level of peptide coated onto the particles) ([2]; measured by fluorescence): 2.83 µL/mg
